We go through 68 substances from patent US11433099B2, “Immunotherapy with B*08 restricted peptides and combination of peptides against cancers and related methods” (Immatics Biotechnologies GmbH, priority 2018, dated 2022).

This assay has as its target HLA-B*08:01 (Homo sapiens, UniProt P01889). The assay can be described thus: MHC binding assay (UV-ligand exchange, beta2m ELISA). The note with it: MHC class I binding score; binding to HLA-B*08:01 ranged by peptide exchange yield (UV-ligand exchange, β2m ELISA). The text has this: Candidate peptides for T cell based therapies according to the present invention were further tested for their MHC binding capacity (affinity). The individual peptide-MHC complexes were produced by UV-ligand exchange, where a UV-sensitive peptide is cleaved upon UV-irradiation and exchanged with the peptide of interest as analyzed. Only peptide candidates that can effectively bind and stabilize the peptide-receptive MHC molecules prevent dissociation of the MHC complexes. To determine the yield of the exchange reaction, an ELISA was performed based on the detection of the light chain (β2m) of stabilized MHC complexes. The assay was performed as generally described in Rodenko et al. (Rodenko et al., 2006).
96 well MAXISorp plates (NUNC) were coated over night with 2 ug/ml streptavidin in PBS at room temperature, washed 4× and blocked for 1 h at 37° C. in 2% BSA containing blocking buffer. Refolded HLA-A*02:01/MLA-001 monomers served as standards, covering the range of 15-500 ng/ml. Peptide-MHC monomers of the UV-exchange reaction were diluted 100-fold in blocking buffer. Samples were incubated for 1 h at 37° C., washed four times, incubated with 2 ug/ml HRP conjugated anti-β2m for 1 h at 37° C., washed again and detected with TMB solution that is stopped with […]. Absorption was measured at 450 nm. Candidate peptides that show a high exchange yield (preferably higher than 50%, most preferred higher than 75%) are generally preferred for a generation and production of antibodies or fragments thereof, and/or T cell receptors or fragments thereof, as they show sufficient avidity to the MHC molecules and prevent dissociation of the MHC complexes.
With “229 (DTHTNTYYL; listed as Homo sapiens) [compound 229]”, the Peptide exchange result was “++ (20% = ++)”.

As to “79 (GLARIYSF; listed as Homo sapiens) [compound 79]”, the Peptide exchange result is “++ (20% = ++)”.

Regarding “43 (DLKKLVDSL; listed as Homo sapiens) [compound 43]”, the Peptide exchange result was “+++ (50% = +++)”.

“99 (NVKIRFLE; listed as Homo sapiens) [compound 99]”: the Peptide exchange result is “++ (20% = ++)”.

For “246 (RLLQKSKEL; listed as Homo sapiens) [compound 246]”, the Peptide exchange result was “++ (20% = ++)”.

In the case of “128 (HFHNRHVF; listed as Homo sapiens) [compound 128]”, the Peptide exchange result is reported as “+++ (50% = +++)”.

Take “118 (MAFVKHLL; listed as Homo sapiens) [compound 118]”: the Peptide exchange entry is on record as “+++ (50% = +++)”.

In the case of “106 (HLHLLETSI; listed as Homo sapiens) [compound 106]”, the Peptide exchange entry is on record as “++ (20% = ++)”.

With “198 (FPLTSIIAI; listed as Homo sapiens) [compound 198]”, the Peptide exchange entry is on record as “+++ (50% = +++)”.

In the case of “228 (TLRAYVLAL; listed as Homo sapiens) [compound 228]”, the Peptide exchange entry is on record as “+++ (50% = +++)”.

As to “241 (NAYEAPSI; listed as Homo sapiens) [compound 241]”, the Peptide exchange result is listed as “++ (20% = ++)”.

Regarding “206 (MEFPNKFNTL; listed as Homo sapiens) [compound 206]”, the Peptide exchange result was “++ (20% = ++)”.

Regarding “235 (SPNSLVTIL; listed as Homo sapiens) [compound 235]”, the Peptide exchange result is given as “+++ (50% = +++)”.

Turning to “85 (QKPRKKKL; listed as Homo sapiens) [compound 85]”, the Peptide exchange result is recorded as “++ (20% = ++)”.

Regarding “117 (VGPNGFKSL; listed as Homo sapiens) [compound 117]”, the Peptide exchange result was “++ (20% = ++)”.

Regarding “219 (VRNPKILIL; listed as Homo sapiens) [compound 219]”, the Peptide exchange entry is “++ (20% = ++)”.

On to “65 (NLLMRNVL; listed as Homo sapiens) [compound 65]”, for which the Peptide exchange result was “++ (20% = ++)”.

Consider “187 (VPYNSVLF; listed as Homo sapiens) [compound 187]”, for which the Peptide exchange result is recorded as “++ (20% = ++)”.

In the case of “242 (KPQSLQLVL; listed as Homo sapiens) [compound 242]”, the Peptide exchange result is on record as “++ (20% = ++)”.

On to “222 (AQKAELIAL; listed as Homo sapiens) [compound 222]”, for which the Peptide exchange entry is recorded as “++ (20% = ++)”.

As to “152 (FNKLVTEL; listed as Homo sapiens) [compound 152]”, the Peptide exchange result is given as “++ (20% = ++)”.

As for “193 (LGGLRLTAL; listed as Homo sapiens) [compound 193]”, the Peptide exchange entry is “++ (20% = ++)”.

Take “108 (RSYYHPTNL; listed as Homo sapiens) [compound 108]”: the Peptide exchange entry is “++ (20% = ++)”.

In the case of “209 (SRFGKFVQL; listed as Homo sapiens) [compound 209]”, the Peptide exchange entry was “++ (20% = ++)”.

As to “77 (LPKLPVPPL; listed as Homo sapiens) [compound 77]”, the Peptide exchange entry was “+++ (50% = +++)”.

“54 (DLSRRDVSL; listed as Homo sapiens) [compound 54]”: the Peptide exchange result is given as “++ (20% = ++)”.

For “97 (EPVTKAEM; listed as Homo sapiens) [compound 97]”, the Peptide exchange result is reported as “+++ (50% = +++)”.

Turning to “231 (GEKLLRPSL; listed as Homo sapiens) [compound 231]”, the Peptide exchange result is on record as “++ (20% = ++)”.

As to “169 (YELNNLHAL; listed as Homo sapiens) [compound 169]”, the Peptide exchange result is given as “++ (20% = ++)”.

As for “124 (HSWTRTSV; listed as Homo sapiens) [compound 124]”, the Peptide exchange entry is reported as “+++ (50% = +++)”.

For the substance “158 (DVIIKGNGL; listed as Homo sapiens) [compound 158]”, the Peptide exchange entry is on record as “++ (20% = ++)”.

Regarding “46 (DLRNKIIAA; listed as Homo sapiens) [compound 46]”, the Peptide exchange entry is listed as “+++ (50% = +++)”.

With “61 (SIKKELVVL; listed as Homo sapiens) [compound 61]”, the Peptide exchange entry is “++ (20% = ++)”.

In the case of “175 (MRFQQFLFA; listed as Homo sapiens) [compound 175]”, the Peptide exchange entry is “+ (0% = +)”.

For the substance “249 (QQIDRVVEV; listed as Homo sapiens) [compound 249]”, the Peptide exchange entry is “++ (20% = ++)”.

Turning to “90 (TIGLGLHSL; listed as Homo sapiens) [compound 90]”, the Peptide exchange entry was “++ (20% = ++)”.

As to “14 (ELILKRCL; listed as Homo sapiens) [compound 14]”, the Peptide exchange entry is “+++ (50% = +++)”.

Consider “212 (EEYKFPSL; listed as Homo sapiens) [compound 212]”, for which the Peptide exchange entry is “++ (20% = ++)”.

On to “147 (HAMDGASHL; listed as Homo sapiens) [compound 147]”, for which the Peptide exchange result was “++ (20% = ++)”.

Regarding “154 (VLKTLQEL; listed as Homo sapiens) [compound 154]”, the Peptide exchange result is “++ (20% = ++)”.

Consider “224 (LPYPPQKVV; listed as Homo sapiens) [compound 224]”, for which the Peptide exchange result is “++ (20% = ++)”.

Turning to “4 (QVMPKTGL; listed as Homo sapiens) [compound 4]”, the Peptide exchange entry is “++ (20% = ++)”.

Take “146 (FQTAHFYL; listed as Homo sapiens) [compound 146]”: the Peptide exchange entry is reported as “+++ (50% = +++)”.

“197 (YKAYPSQL; listed as Homo sapiens) [compound 197]”: the Peptide exchange entry is listed as “++ (20% = ++)”.

Regarding “217 (ETIKGHSVRL; listed as Homo sapiens) [compound 217]”, the Peptide exchange entry was “++ (20% = ++)”.

As to “70 (RPKGTPPL; listed as Homo sapiens) [compound 70]”, the Peptide exchange entry is reported as “++ (20% = ++)”.

As for “247 (TPEPSVHAL; listed as Homo sapiens) [compound 247]”, the Peptide exchange entry is recorded as “++ (20% = ++)”.

On to “133 (QATPRVRIL; listed as Homo sapiens) [compound 133]”, for which the Peptide exchange entry was “++ (20% = ++)”.

For “116 (FTQNPRVQL; listed as Homo sapiens) [compound 116]”, the Peptide exchange entry is “++ (20% = ++)”.

“52 (ELILKHSL; listed as Homo sapiens) [compound 52]”: the Peptide exchange result is recorded as “+++ (50% = +++)”.

“220 (LAVRHLSL; listed as Homo sapiens) [compound 220]”: the Peptide exchange result was “++ (20% = ++)”.

With “185 (MELKTVKPI; listed as Homo sapiens) [compound 185]”, the Peptide exchange result is on record as “++ (20% = ++)”.

In the case of “186 (DLISPRQPRL; listed as Homo sapiens) [compound 186]”, the Peptide exchange result is “++ (20% = ++)”.

For the substance “139 (YGRIGISLF; listed as Homo sapiens) [compound 139]”, the Peptide exchange result is listed as “++ (20% = ++)”.

Consider “215 (NPLIEIISI; listed as Homo sapiens) [compound 215]”, for which the Peptide exchange entry is reported as “++ (20% = ++)”.

“208 (LPPPQPLSL; listed as Homo sapiens) [compound 208]”: the Peptide exchange entry was “++ (20% = ++)”.

For the substance “239 (SEPVMRVTL; listed as Homo sapiens) [compound 239]”, the Peptide exchange entry is recorded as “++ (20% = ++)”.

Turning to “123 (SLLPFTLSF; listed as Homo sapiens) [compound 123]”, the Peptide exchange result is reported as “++ (20% = ++)”.

Take “143 (DADLREQAL; listed as Homo sapiens) [compound 143]”: the Peptide exchange result was “++ (20% = ++)”.

For “114 (PVKPKFYL; listed as Homo sapiens) [compound 114]”, the Peptide exchange entry is listed as “++ (20% = ++)”.

As to “161 (DIVPPFSAF; listed as Homo sapiens) [compound 161]”, the Peptide exchange entry is given as “++ (20% = ++)”.

In the case of “153 (HAIPHYVTM; listed as Homo sapiens) [compound 153]”, the Peptide exchange result is recorded as “++ (20% = ++)”.

Consider “245 (GPRGPSSGHPL; listed as Homo sapiens) [compound 245]”, for which the Peptide exchange entry is given as “++ (20% = ++)”.

On to “167 (DMKITVSL; listed as Homo sapiens) [compound 167]”, for which the Peptide exchange result is listed as “+++ (50% = +++)”.

For the substance “100 (VLLMGPLHL; listed as Homo sapiens) [compound 100]”, the Peptide exchange result was “++ (20% = ++)”.

On to “232 (KLYIHRVTL; listed as Homo sapiens) [compound 232]”, for which the Peptide exchange result is listed as “++ (20% = ++)”.

Take “155 (LPASFPAVL; listed as Homo sapiens) [compound 155]”: the Peptide exchange entry is reported as “++ (20% = ++)”.

“207 (LRKRKSPE; listed as Homo sapiens) [compound 207]”: the Peptide exchange result is on record as “++ (20% = ++)”.
